This note sets out measurements from PMC3983041, “Interplay of the Serine/Threonine-Kinase StkP and the Paralogs DivIVA and GpsB in Pneumococcal Cell Elongation and Division” (PLoS Genetics, 2014).

What all share (test): SPR; BIAcore T100; EzrA or GpsB covalently coupled through amino groups to a CM5 chip; analytes 0.002-1 µM at 30 µL/min in 10 mM HEPES pH 7.4, 150 mM NaCl, 0.005% surfactant; apparent KD from the equilibrium signal (Req); triplicate
On the technique in general: Surface plasmon resonance follows binding to a sensor surface in real time, without labels.

Assay [1] addresses EzrA without its N-terminal transmembrane domain (Streptococcus pneumoniae (strain R800)).
Assay [2] deals with T1, inactive cytoplasmic domain of StkP-K42R (Streptococcus pneumoniae (strain R800), UniProt Q8DNS0 1-342, K42R).
T1 construct: also called StkP-K42R cytoplasmic domain; source: E. coli BL21(DE3), purified (Ni-NTA agarose)
T1 sequence: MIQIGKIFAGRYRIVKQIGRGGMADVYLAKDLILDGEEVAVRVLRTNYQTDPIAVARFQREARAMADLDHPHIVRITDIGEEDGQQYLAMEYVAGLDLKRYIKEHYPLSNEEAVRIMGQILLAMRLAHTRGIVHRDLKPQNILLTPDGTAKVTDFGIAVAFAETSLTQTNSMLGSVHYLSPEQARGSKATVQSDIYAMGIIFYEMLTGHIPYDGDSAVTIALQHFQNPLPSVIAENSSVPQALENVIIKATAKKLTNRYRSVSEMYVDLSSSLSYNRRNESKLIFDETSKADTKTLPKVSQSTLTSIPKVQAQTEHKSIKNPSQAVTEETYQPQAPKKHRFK
To be noted: both partners purified.

The target in another assay is T2, DivIVA (Streptococcus pneumoniae (strain R800), UniProt Q8CWP9 1-262).
T2 construct: DivIVA of Streptococcus pneumoniae, PCR from chromosomal DNA of strain R800, cloned in pETPhos; also called Spn-DivIVA; DivVA; source: E. coli BL21(DE3), purified (Ni-NTA agarose)
T2 sequence (looked up): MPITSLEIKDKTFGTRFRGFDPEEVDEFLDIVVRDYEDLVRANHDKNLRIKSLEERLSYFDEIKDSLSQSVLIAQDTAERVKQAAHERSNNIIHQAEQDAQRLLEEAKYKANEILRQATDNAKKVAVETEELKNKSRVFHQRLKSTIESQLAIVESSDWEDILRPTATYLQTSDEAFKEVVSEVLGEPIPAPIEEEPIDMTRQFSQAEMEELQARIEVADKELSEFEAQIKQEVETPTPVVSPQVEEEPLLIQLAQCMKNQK
To be noted: both partners purified.

Sequence of EzrA without its N-terminal transmembrane domain (Streptococcus pneumoniae (strain R800)) (B1IAY5 28-575 limits assumed): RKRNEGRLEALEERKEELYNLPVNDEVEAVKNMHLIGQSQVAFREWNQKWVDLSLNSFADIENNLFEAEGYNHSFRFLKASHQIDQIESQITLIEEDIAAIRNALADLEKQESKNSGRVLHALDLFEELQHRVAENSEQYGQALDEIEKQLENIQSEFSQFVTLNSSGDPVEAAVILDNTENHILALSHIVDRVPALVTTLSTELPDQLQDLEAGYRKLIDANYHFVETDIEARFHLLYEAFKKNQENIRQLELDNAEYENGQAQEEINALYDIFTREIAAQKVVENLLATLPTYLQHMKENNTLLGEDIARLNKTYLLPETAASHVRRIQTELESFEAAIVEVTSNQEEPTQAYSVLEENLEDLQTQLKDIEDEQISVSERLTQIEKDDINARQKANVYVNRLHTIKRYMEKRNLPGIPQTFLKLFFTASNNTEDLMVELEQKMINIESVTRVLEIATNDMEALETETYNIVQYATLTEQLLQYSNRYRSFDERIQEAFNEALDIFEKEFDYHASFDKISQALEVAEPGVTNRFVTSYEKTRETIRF

Consider “FtsZ (from UniProt A0A0H2ZNE0 1-419) (natural protein)”, for which the Kd in assay [1] turned out to be 295 nM. Consider “GpsB (from UniProt C1CIN3 1-109) (natural protein)”, for which the Kd in assay [1] stood at 770 nM.

B1: DivIVA (natural protein)
chain: T2 sequence (looked up)
As to B1, in assay [1], the Kd worked out at 530 nM.

B2: GpsB (natural protein, Streptococcus pneumoniae (strain R800), UniProt C1CIN3 1-109, looked up)
chain: MASIIFSAKDIFEQEFGREVRGYNKVEVDEFLDDVIKDYETYAALVKSLRQEIADLKEELTRKPKPSPVQAEPLEAAITSSMTNFDILKRLNRLEKEVFGKQILDNSDF
notes: GpsB of Streptococcus pneumoniae, PCR from chromosomal DNA of strain R800, cloned in pETPhos; In the SPR either coupled to the chip by its amino groups or injected as analyte; also called Spn-GpsB; source: E. coli BL21(DE3), purified (Ni-NTA agarose)
Take B2: the Kd is 500 ± 60 nM in assay [2] and 85 ± 14 nM in the assay with DivIVA.
